Starred links: 1 amine or outer side, 2 acyl side, 3 side chain; linkers in the order of their positions; H or OH if unused. Positions of bridges follow the written chain, without caps; N, C: chain ends. Non-standard residues stand in square brackets, D forms with d. Primed or numbered codes have the meaning given here. (4CF3PhAc)GA = (S)-2-amino-3-(N-(carboxymethyl)-2-(4-(trifluoromethyl)phenyl)acetamido)propanoic acid, O=C(Cc1ccc(C(F)(F)F)cc1)N(CC(=O)[*:3])C[C@H](N[*:1])C(=O)[*:2]; (PfPhAc)GA = (S)-2-amino-3-(N-(carboxymethyl)-2-(perfluorophenyl)acetamido)propanoic acid, O=C(Cc1c(F)c(F)c(F)c(F)c1F)N(CC(=O)[*:3])C[C@H](N[*:1])C(=O)[*:2]; (MePipAc)GA = (S)-2-amino-3-(N-(carboxymethyl)-2-(4-methylpiperazin-1-yl)acetamido)propanoic acid, CN1CCN(CC(=O)N(CC(=O)[*:3])C[C@H](N[*:1])C(=O)[*:2])CC1; (4AcMePip)GA = (S)-2-amino-3-(N-(carboxymethyl)-1-methylpiperidine-4-carboxamido)propanoic acid, CN1CCC(C(=O)N(CC(=O)[*:3])C[C@H](N[*:1])C(=O)[*:2])CC1; (NdiMeButC)GAbu = (S)-2-amino-4-(N-(carboxymethyl)-4-(dimethylamino)butanamido)butanoic acid, CN(C)CCCC(=O)N(CC[C@H](N[*:1])C(=O)[*:2])CC(=O)[*:3]; PyrS2″ = (S)-3-amino-1-((pent-4-en-1-yloxy)carbonyl)pyrrolidine-3-carboxylic acid (stapling residue), C=CCCCOC(=O)N1CC[C@@](N[*:1])(C(=O)[*:2])C1; (NdiMeButC)GA = (S)-2-amino-3-(N-(carboxymethyl)-4-(dimethylamino)butanamido)propanoic acid, CN(C)CCCC(=O)N(CC(=O)[*:3])C[C@H](N[*:1])C(=O)[*:2]; (Me2NPr)GA = (S)-2-amino-3-(N-(carboxymethyl)-3-(dimethylamino)propanamido)propanoic acid, CN(C)CCC(=O)N(CC(=O)[*:3])C[C@H](N[*:1])C(=O)[*:2]; (MorphAc)GA = (S)-2-amino-3-(N-(carboxymethyl)-2-morpholinoacetamido)propanoic acid, O=C(CN1CCOCC1)N(CC(=O)[*:3])C[C@H](N[*:1])C(=O)[*:2]; B5(4) = 2,2-bis(4-pentenyl)glycine = 2-amino-2-(pent-4-en-1-yl)hept-6-enoic acid (stitching residue), C=CCCCC(CCCC=C)(N[*:1])C(=O)[*:2]; PyrS2 = (S)-3-amino-1-((pent-4-en-1-yloxy)carbonyl)pyrrolidine-3-carboxylic acid, C=CCCCOC(=O)N1CC[C@@](N[*:1])(C(=O)[*:2])C1; (Pic)GA = (S)-2-amino-3-(N-(carboxymethyl)picolinamido)propanoic acid, O=C(c1ccccn1)N(CC(=O)[*:3])C[C@H](N[*:1])C(=O)[*:2]; B5(22) = 2-amino-2-(pent-4-en-1-yl)hept-6-enoic acid (two alkene side chains), C=CCCCC(CCCC=C)(N[*:1])C(=O)[*:2]; B5(3) = 2,2-bis(4-pentenyl)glycine (stitching residue), C=CCCCC(CCCC=C)(N[*:1])C(=O)[*:2]; Phe(3-COOH) = N[C@@H](Cc1cccc(C(=O)O)c1)C(=O)O; 2F3MeF = Cc1cccc(C[C@H](N[*:1])C(=O)[*:2])c1F; Phe(2-CF3) = N[C@@H](Cc1ccccc1C(F)(F)F)C(=O)O; Phe(3-Cl) = N[C@@H](Cc1cccc(Cl)c1)C(=O)O; Phe(4-Cl) = N[C@@H](Cc1ccc(Cl)cc1)C(=O)O; Bta = N[C@@H](Cc1csc2ccccc12)C(=O)O; αAllylPro = C=CC[C@@]1(C(=O)O)CCCN1; tBuAla = CC(C)(C)C[C@H](N)C(=O)O; 3Thi = N[C@@H](Cc1ccsc1)C(=O)O; PyrS2(4) = not defined here; 4ClBztA = not defined here
T1: B-cat-Halo (UniProt P35222 1-781)
T1 sequence (looked up): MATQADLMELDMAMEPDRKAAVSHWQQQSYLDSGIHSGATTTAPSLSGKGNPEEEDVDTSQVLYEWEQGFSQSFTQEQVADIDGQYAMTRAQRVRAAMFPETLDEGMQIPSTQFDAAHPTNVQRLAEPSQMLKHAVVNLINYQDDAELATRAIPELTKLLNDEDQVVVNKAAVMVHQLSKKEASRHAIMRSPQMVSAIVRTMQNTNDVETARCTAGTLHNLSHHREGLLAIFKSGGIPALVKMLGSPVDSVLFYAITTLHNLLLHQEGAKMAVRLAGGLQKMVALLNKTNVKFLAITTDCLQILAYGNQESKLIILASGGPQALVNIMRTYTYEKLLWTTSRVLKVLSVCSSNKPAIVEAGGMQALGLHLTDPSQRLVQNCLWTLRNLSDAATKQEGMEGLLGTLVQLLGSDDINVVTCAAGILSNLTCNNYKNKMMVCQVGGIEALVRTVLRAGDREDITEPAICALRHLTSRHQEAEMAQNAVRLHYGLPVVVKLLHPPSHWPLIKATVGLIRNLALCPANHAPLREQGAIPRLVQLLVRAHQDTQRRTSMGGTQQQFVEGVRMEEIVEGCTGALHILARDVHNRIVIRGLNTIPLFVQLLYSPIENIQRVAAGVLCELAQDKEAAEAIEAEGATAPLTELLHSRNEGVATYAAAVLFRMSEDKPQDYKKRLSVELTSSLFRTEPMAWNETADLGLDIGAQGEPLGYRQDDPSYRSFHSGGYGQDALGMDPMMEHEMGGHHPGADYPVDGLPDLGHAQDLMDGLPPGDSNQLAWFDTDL

T2: B-cat-Halo (beta-catenin HaloTag fusion expressed in HEK293 cells) (UniProt P35222 1-781)
T2 sequence (looked up): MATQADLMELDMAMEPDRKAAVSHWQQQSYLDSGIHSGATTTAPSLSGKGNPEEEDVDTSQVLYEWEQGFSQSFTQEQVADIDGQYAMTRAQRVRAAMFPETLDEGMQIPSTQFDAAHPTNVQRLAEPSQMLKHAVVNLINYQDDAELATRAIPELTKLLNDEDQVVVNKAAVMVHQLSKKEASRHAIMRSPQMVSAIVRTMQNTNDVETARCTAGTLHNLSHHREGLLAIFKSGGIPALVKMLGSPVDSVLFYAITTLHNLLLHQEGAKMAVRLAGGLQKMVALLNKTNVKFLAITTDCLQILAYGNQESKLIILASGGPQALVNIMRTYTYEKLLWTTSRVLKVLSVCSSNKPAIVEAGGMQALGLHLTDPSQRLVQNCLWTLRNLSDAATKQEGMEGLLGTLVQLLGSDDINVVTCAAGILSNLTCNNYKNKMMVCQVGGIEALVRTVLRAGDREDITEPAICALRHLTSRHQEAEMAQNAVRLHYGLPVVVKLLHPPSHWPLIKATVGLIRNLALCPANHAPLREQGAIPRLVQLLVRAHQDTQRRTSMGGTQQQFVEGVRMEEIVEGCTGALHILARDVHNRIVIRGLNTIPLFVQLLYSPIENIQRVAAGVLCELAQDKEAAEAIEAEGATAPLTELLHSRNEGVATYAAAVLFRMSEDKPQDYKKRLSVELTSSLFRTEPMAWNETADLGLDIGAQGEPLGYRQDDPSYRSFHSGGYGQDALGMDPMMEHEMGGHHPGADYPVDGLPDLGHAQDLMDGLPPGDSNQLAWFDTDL


The binders below were run against T1, B-cat-Halo (assay: cell-based or functional assay).

Binder	NanoBRET Abs IC50
Ac-[αAllylPro]D[tBuAla][B5(3)]D[Phe(3-COOH)]QAFL[PyrS2″][2F3MeF][Phe(4-Cl)]A-NH2 (staple 1-4, 4-11) [I-2223]	9 µM
Ac-[αAllylPro]D[tBuAla][B5(3)]D[Phe(3-COOH)]AAFL[PyrS2″][2F3MeF][Phe(3-Cl)]S-NH2 (staple 1-4, 4-11) [I-2226]	10.6 µM
Ac-[αAllylPro]D[tBuAla][B5(3)]D[Phe(3-COOH)]AAFL[PyrS2″][3Thi][Phe(3-Cl)]Q-NH2 (staple 1-4, 4-11) [I-2224]	14.2 µM
Ac-[αAllylPro]D[tBuAla][B5(3)]D[Phe(3-COOH)]QAFV[PyrS2(4)][3Thi][Phe(3-Cl)]A-NH2 (staple 1-4, 4-11; reading uncertain) [I-2225]	7.8 µM
Ac-[αAllylPro]D[tBuAla][B5(22)]D[(4CF3PhAc)GA]AAFL[PyrS2][3Thi][Bta]Q-NH2 (staple 1-4, 4-11) [I-2236]	15.3 µM
Ac-[αAllylPro]D[tBuAla][B5(3)]D[(NdiMeButC)GA]AAFL[PyrS2″][3Thi][Bta]Q-NH2 (staple 1-4, 4-11) [I-2233]	> 20 µM
Ac-[αAllylPro]D[tBuAla][B5(22)]D[(Me2NPr)GA]AAFL[PyrS2][3Thi][Bta]Q-NH2 (staple 1-4, 4-11) [I-2234]	> 20 µM
Ac-[αAllylPro]D[tBuAla][B5(3)]D[Phe(3-COOH)]QAFL[PyrS2″][2F3MeF][Phe(3-Cl)]A-NH2 (staple 1-4, 4-11) [I-2227]	6.3 µM
Ac-[αAllylPro]D[tBuAla][B5(22)]D[(4AcMePip)GA]AAFL[PyrS2][3Thi][Bta]Q-NH2 (staple 1-4, 4-11) [I-2235]	> 20 µM

More lines, now with the values ahead:

NanoBRET Abs IC50	Binder
25.2 µM	Ac-[αAllylPro]D[tBuAla][B5(22)]D[(NdiMeButC)GAbu]AAFL[PyrS2][3Thi][Bta]Q-NH2 (staple 1-4, 4-11) [I-2243]
31.9 µM	Ac-[αAllylPro]D[tBuAla][B5(22)]D[(MorphAc)GA]AAFL[PyrS2][3Thi][Bta]Q-NH2 (staple 1-4, 4-11) [I-2239]
17.7 µM	Ac-[αAllylPro]D[tBuAla][B5(22)]D[(PfPhAc)GA]AAFL[PyrS2][3Thi][Bta]Q-NH2 (staple 1-4, 4-11) [I-2241]
21.4 µM	Ac-[αAllylPro]D[tBuAla][B5(3)]D[(PfBz)GA]AAFL[PyrS2(4)][3Thi][Bta]Q-NH2 (staple 1-4, 4-11; reading uncertain) [I-2242]
24.3 µM	Ac-[αAllylPro]D[tBuAla][B5(22)]D[(Pic)GA]AAFL[PyrS2][3Thi][Bta]Q-NH2 (staple 1-4, 4-11) [I-2237]
> 20 µM	Ac-[αAllylPro]D[tBuAla][B5(22)]D[(MePipAc)GA]AAFL[PyrS2][3Thi][Bta]Q-NH2 (staple 1-4, 4-11) [I-2240]

The binders below were run against T2, B-cat-Halo (beta-catenin HaloTag fusion …) (assay: cell-based or functional assay).

NanoBRET Abs IC50	Binder
6.4 µM	Ac-[αAllylPro]D[tBuAla][B5(4)]D[Phe(3-COOH)]AAFL[PyrS2″][Phe(2-CF3)][4ClBztA]Q-NH2 (staple 1-4, 4-11; reading uncertain) [I-2490]

Reference: patent US20240116985A1 (published 2024)
